# According to paper PMC9465852, “Comparative analyses of vertebrate CPEB proteins define two subfamilies with coordinated yet distinct functions in post-transcriptional gene regulation”:
# Columns and labels:
# CPEB4 [1] = target: T1, CPEB4 (Xenopus laevis, UniProt A0A1L8GV75 1-702); assay: AlphaScreen; 50 nM protein, 0.5-75 nM RNA; CPEB4 binds A- and G-CPE equally well; 10 mM HEPES pH 7.4, 100 mM KCl, 3 mM MgCl2, 1 mM DTT, 0.2 mg/mL tRNA, 0.1% Tween; room temperature; 50 or 75 nM protein; details: protein: recombinant; tags: 6xHis; label: 3' biotin; single strand
# CPEB4 [2] = target: T1, CPEB4; assay: AlphaScreen; 50 nM protein, 0.5-75 nM RNA; equal to or better than CPE-A; 10 mM HEPES pH 7.4, 100 mM KCl, 3 mM MgCl2, 1 mM DTT, 0.2 mg/mL tRNA, 0.1% Tween; room temperature; 50 or 75 nM protein; details: protein: recombinant; tags: 6xHis; label: 3' biotin; single strand
# T1 sequence (A0A1L8GV75 entry or part of it): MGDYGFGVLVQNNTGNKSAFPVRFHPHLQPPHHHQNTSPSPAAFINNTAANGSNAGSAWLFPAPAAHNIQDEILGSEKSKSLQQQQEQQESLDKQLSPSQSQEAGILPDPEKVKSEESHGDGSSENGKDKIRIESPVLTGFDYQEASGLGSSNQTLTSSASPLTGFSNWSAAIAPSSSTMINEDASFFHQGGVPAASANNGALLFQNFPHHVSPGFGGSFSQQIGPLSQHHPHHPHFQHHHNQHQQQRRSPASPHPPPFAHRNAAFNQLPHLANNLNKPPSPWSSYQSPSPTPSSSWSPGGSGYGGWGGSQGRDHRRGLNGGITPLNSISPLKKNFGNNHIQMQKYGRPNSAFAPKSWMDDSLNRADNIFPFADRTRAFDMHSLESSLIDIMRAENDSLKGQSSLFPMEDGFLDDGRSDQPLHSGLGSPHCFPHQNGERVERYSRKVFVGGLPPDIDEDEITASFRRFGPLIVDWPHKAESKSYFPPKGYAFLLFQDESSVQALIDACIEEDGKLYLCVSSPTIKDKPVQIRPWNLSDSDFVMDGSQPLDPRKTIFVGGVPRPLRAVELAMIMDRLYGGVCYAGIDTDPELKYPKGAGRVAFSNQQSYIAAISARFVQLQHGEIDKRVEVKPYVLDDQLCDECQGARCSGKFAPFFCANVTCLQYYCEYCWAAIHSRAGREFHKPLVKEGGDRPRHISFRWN
Binder,binding result (CPEB4 [1]),binding result (CPEB4 [2])
"AGUGUACAGUGUUUUUAAUAGUUUGUUG (ssRNA, 3' biotin) [CPE-A]",binds,
"AGUGUACAGUGUUUUUGUAAGUUUGUUG (ssRNA, 3' biotin) [CPE-G]",,binds
